Assay [1] has as its target T1, murine albumin (murine, UniProt P07724 25-608). As to the kind of experiment: ELISA, albumin coated at 10 microgram/ml, anti-His tag detection. From the text:
(§1) Example 1: Binding of KB-AT-002/003_ABP to human and murine albumin in an immunosorbent assay. Binding to albumin may be favorable to increase the size of sdAbs, which are smaller sized than conventional immunoglobulins (15 kDa versus 150 kDa, for a monovalent sdAb and IgG, respectively). A construct was established encoding a bi-paratopic sdAb (KB-AT-002/003) fused to an albumin binding peptide (ABP, with the amino acid sequence […]) resulting in the sdAb designated KB-AT-002/003_ABP (SEQ ID NO: 18). Purified KB-AT-002/003_ABP was tested for binding to both human and murine albumin. Human and murine albumin were immobilized (10 microgram/ml) in 10 mM NaHCO₃, 50 mM Na2CO3 (pH 9.5) in a volume of 50 microliter in microtiter plates (Greiner Bio-One, Les Ulis, France) for 16 h at 4° C. As a negative control, no albumin was immobilized. […]
(§2) Wells were then washed three times with 200 microliter/well using TBS-T. Bound of KB-AT-002/003_ABP was probed with peroxidase-labeled monoclonal anti-His tag antibodies (Abcam, diluted 1/10000) for 2 hours at 37° C. with 50 microliter/well. Wells were then washed three times with 100 microliter/well using TBS-T. Residual peroxidase activity was detected by measuring peroxidase-mediated […] of 3,3′,5,5′-tetramethylbenzidine. […]

The next assay concerns the target T2, human albumin (human, UniProt P02768 25-609).
T2 construct: Coated on microtiter wells at 10 microgram/ml
Described as above.
From the text: as §1, §2

For assay [2], the target named is T1, murine albumin. As to the kind of experiment: immunosorbent assay: murine albumin coated at 10 microgram/ml, bound sdAb probed with peroxidase-labeled anti-His tag antibody, corrected for non-coated wells.
From the text: as §1, §2

For assay [3], the target named is T3, biotinylated human albumin (human, UniProt P02768 25-609, biotinylated (sites not given)).
T3 construct: Captured on streptavidin biosensors; also called human bt-albumin; bt-albumin
As to the kind of experiment: biolayer interferometry (Octet-QK), bt-albumin on streptavidin sensors, sdAb at 125 or 250 microgram/ml. As to the method:
(§3) Example 2: Binding of KB-AT-002/003_ABP to biotinylated human albumin in a biolayer-interferometry analysis assay. We tested the binding of KB-AT-002/003_ABP to biotinylated human albumin using Octet-QK equipment (FIG. 2). To this end, biotinylated albumin (bt-albumin) was diluted in phosphate-buffered saline with 0.1% Tween-20 (PBS-T) to a concentration of 200 microgram/ml for absorption to streptavidin-high binding capacity sensors (Fortébio, Menlo Park, Calif., USA). Sensors were rehydrated in 0.2 ml PBS-T for 15 min. Sensors were then incubated with 0.1 ml bt-albumin solution for 600 sec. Sensors were subsequently allowed to reach stable baseline levels via incubation with PBS-T for 300 sec. bt-Albumin coated sensors were then transferred to wells containing KB-AT-002/003_ABP (125 or 250 microgram/ml in PBS-T) and incubated for 300 sec in order to visualize association of KB-AT-002/003_ABP to immobilized bt-albumin. Following this association phase, sensors were transferred to wells containing PBS-T, and incubated for 900 sec, allowing dissociation of the KB-AT-002/003_ABP/bt-albumin complex.
(§4) Example 3: Binding of KB-VWF-013bv_ABP to biotinylated human or murine albumin in a biolayer-interferometry analysis assay. We tested the binding of KB-VWF-013bv_ABP (SEQ ID NO: 6) to biotinylated human or murine albumin using Octet-QK equipment (FIG. 3). To this end, biotinylated albumin (bt-albumin) was diluted in phosphate-buffered saline with 0.1% Tween-20 (PBS-T) to a concentration of 200 microgram/ml for absorption to streptavidin-high binding capacity sensors (Fortébio, Menlo Park, Calif., USA). Sensors were rehydrated in 0.2 ml PBS-T for 15 min. Sensors were then incubated with 0.1 ml bt-albumin solution for 600 sec. Sensors were subsequently allowed to reach stable baseline levels via incubation with PBS-T for 300 sec. bt-Albumin coated sensors were then transferred to wells containing KB-VWF-013bv_ABP (125 or 250 microgram/ml in PBS-T) and incubated for 900 sec in order to visualize association of KB-VWF-013bv_ABP to immobilized bt-albumin.
A general note: Biolayer interferometry detects binding as a change in optical thickness at a sensor tip.

The target of the next assay is T4, human antithrombin (human, UniProt P01008 33-464).
T4 construct: also called AT
As to the kind of experiment: biolayer interferometry (Octet-QK), human antithrombin coupled to amine-reactive sensors, sdAb in solution (100 microgram/ml by paragraph 127). As to the method: Example 4: Binding of murine albumin to a complex of antithrombin and KB-AT-002/003_ABP. We tested the binding of albumin to KB-AT-002/003_ABP while the sdAb was bound to antithrombin via biolayer-interferometry analysis using Octet-QK equipment (FIG. 4). To this end, human antithrombin was diluted in 0.1 M Mes (pH 5.0) to a concentration of 50 microgram/ml for coupling to EDC/NHS-activated amine-reactive biosensors (Fortébio, Menlo Park, Calif., USA). Sensors were rehydrated in 0.2 ml 0.1 M MES, pH 5.0 for 300 sec. Sensors were then activated via incubation with 0.1 ml 0.2 M EDC/0.095 M NHS mixture for 300 sec and subsequently incubated with 0.1 ml antithrombin-solution for 600 sec. Unoccupied amine-reactive sites were quenched by incubating with 1M ethanolamine for 180 sec, and sensors were allowed to reach stable baseline levels via incubation with phosphate-buffered saline supplemented with 0.1% Tween-20 (PBS-T) for 300 sec. Antithrombin-coated sensors were then transferred to wells containing KB-AT-002/003_ABP (100 microgram/ml in PBS-T) and incubated for 600 sec in order to visualize association of KB-AT-002/003_ABP to immobilized antithrombin. […] As is showing in the lower panel of FIG. 4, KB-AT-002/003_ABP bound readily to immobilized antithrombin.

The target of assay [4] is T5, biotinylated murine albumin (murine, UniProt P07724 25-608, biotinylated (sites not given)).
T5 construct: Captured on streptavidin biosensors; also called murine bt-albumin; bt-albumin
As to the kind of experiment: biolayer interferometry (Octet-QK), bt-albumin on streptavidin sensors, sdAb at 125 or 250 microgram/ml. As to the method: as §3, §4

T4 sequence (P01008 33-464 limits assumed): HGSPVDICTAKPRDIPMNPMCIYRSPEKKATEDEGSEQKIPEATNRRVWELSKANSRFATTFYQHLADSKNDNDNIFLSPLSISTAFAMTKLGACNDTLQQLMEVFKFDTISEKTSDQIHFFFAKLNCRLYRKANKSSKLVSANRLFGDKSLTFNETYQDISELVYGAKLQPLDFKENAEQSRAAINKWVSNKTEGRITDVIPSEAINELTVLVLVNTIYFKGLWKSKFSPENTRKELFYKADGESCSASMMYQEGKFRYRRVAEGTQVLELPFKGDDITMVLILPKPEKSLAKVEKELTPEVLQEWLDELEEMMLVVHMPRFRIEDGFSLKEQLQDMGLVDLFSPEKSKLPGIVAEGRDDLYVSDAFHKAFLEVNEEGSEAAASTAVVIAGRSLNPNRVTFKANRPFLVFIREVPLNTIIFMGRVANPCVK

B1: KB-AT-002/003 (VHH)
chain: QVQLQESGGGLVQAGGSLRLSCAASGRTFNNNGMGWFRQAPGKEREFVAAISWSGGSTYYADSVKGRYIMSRDNAKNTVYLQMNSLKPEDTAVYYCAARTRYNSGLFSRNYDYWGQGTQVTVSSGGGSGGGSGGGSGGGSQVQLQESGGGLVQPGGSLRLSCAASALTFSSRAWAWYRQAPGKQRELVASITGGGTTNYADSVKGRFTISRDNAKNTVYLQMNSLKPEDTAVHYCNGYRYTYAWGQGTQVTVSS
notes: A tag is not described, but a His tag is likely, since the ELISA detects with anti-His antibodies
Turning to B1, the binding result with murine albumin [1] and in the assay with human albumin was “no binding (tested: 0-10 microgram/ml)” each time.

B2: KB-AT-002/003_ABP (VHH)
chain: QVQLQESGGGLVQAGGSLRLSCAASGRTFNNNGMGWFRQAPGKEREFVAAISWSGGSTYYADSVKGRYIMSRDNAKNTVYLQMNSLKPEDTAVYYCAARTRYNSGLFSRNYDYWGQGTQVTVSSGGGSGGGSGGGSGGGSQVQLQESGGGLVQPGGSLRLSCAASALTFSSRAWAWYRQAPGKQRELVASITGGGTTNYADSVKGRFTISRDNAKNTVYLQMNSLKPEDTAVHYCNGYRYTYAWGQGTQVTVSSGRGGGSGGGSGGGSGGGSQGLIGDIALPRWGALWGDSV
notes: It was detected with anti-His tag antibodies, so the protein tested carried a His tag; also called KB-AT-002/003_AlbBP
B2: the binding result with murine albumin [2] and with human antithrombin was “binds” each time. Moreover, the Kd in assay [3] stood at 420 nM.

B3: KB-VWF-013bv_ABP (VHH)
chain: QVQLQSGGGLVQAGDSLRLSCAASGRTFIRYAMAWFRQAPGKEREFVAAIPQSGGRSYYADSVKGRFTISRDNAKNTVYLQMNSLKPEDTAVYSCAATSTYYGRSAYSSHSGGYDYWGQGTQVTVSSGGGSGGGSGGGSGGGSQVQLVQSGGGLVQAGDSLRLSCAASGRTFIRYAMAWFRQAPGKEREFVAAIPQSGGRSYYADSVKGRFTISRDNAKNTVYLQMNSLKPEDTAVYSCAATSTYYGRSAYSSHSGGYDYWGQGTQVTVSSGRGGGSLTPRGVRLGGGSQGLIGDIALPRWGALWGDSV
notes: A tag is not described; also called KB-VWF-013_ABP
As to B3, the Kd came to 83 nM in assay [4] and 99 nM in assay [3].

By Kd is commonly meant a measure of binding affinity in units of concentration. Low values mean higher affinity, high ones lower affinity.

Values taken from patent publication US20210277145A1 (INSERM INSTITUT NATIONAL DE LA SANTE ET DE LA RECHERCHE …, published 2021).
